Values quoted from earlier work, collected in article PMC4125106.

Biological target: insulin receptor (Drosophila melanogaster) (UniProt P09208)
Test: competitive binding

Sequence of UniProt P09208 (P09208 44-1310): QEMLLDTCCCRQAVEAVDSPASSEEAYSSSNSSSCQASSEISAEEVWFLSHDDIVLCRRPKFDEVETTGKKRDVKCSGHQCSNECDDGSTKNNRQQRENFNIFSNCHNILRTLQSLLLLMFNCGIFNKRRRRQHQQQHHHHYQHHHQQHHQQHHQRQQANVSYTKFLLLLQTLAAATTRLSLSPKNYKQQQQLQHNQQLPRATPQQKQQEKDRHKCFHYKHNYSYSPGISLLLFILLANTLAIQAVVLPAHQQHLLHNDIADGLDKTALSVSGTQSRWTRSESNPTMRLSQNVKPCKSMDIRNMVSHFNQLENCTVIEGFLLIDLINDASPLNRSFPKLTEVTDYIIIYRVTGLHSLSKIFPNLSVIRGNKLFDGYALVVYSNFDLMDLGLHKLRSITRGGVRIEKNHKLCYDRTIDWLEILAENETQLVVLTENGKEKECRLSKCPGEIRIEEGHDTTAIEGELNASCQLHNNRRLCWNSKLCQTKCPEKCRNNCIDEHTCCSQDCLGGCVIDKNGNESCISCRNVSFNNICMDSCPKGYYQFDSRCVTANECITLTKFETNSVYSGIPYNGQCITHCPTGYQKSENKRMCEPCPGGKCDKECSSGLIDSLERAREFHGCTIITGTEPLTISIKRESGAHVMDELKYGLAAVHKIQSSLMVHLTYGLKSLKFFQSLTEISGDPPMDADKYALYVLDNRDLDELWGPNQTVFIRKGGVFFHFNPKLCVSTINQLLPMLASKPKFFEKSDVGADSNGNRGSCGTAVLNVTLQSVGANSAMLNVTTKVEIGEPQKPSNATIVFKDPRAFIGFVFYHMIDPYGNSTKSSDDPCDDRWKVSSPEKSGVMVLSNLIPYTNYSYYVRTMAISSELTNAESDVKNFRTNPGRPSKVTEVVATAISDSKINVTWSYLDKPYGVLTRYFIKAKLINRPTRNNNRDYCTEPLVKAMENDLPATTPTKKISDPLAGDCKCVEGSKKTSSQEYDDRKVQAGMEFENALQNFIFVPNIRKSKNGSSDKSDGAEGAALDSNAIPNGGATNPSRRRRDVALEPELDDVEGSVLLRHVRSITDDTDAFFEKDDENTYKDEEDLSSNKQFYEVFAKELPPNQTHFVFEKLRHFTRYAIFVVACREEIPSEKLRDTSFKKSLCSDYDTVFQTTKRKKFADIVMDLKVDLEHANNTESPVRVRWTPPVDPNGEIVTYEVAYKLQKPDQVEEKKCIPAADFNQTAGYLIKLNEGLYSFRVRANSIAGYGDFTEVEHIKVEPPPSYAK

Ilp5 (from UniProt Q7KUD5)
Kd: 555 pM
